The results in this text go back to patent publication US20030162942A1 (DYAX, published 2003).

Residue numbers refer to the chain shown, from its start.

B1: CMTI-I analogue 120, phage isolate (designed binder)
chain: RWCPKTSLECMKDSDCLAECVCLEHGYCGAGPSYIEGRIVGSA
notes: not shown: mature gene III protein of M13 phage
B2: CMTI-I analogue 226, phage isolate (designed binder)
chain: B1 chain with K5R, T6S, S7N
notes: as for B1
B3: CMTI-I analogue 223, phage isolate (designed binder)
chain: B1 chain with T6Y, S7T
notes: as for B1
B4: CMTI-I analogue 224, phage isolate (designed binder)
chain: B1 chain with K5R, T6S
notes: as for B1
B5: CMTI-I analogue 228, phage isolate (designed binder)
chain: B1 chain with T6Y, S7T
notes: as for B1
B6: CMTI-I analogue 235, phage isolate (designed binder)
chain: B1 chain with T6S, S7T, E9G
notes: as for B1
B7: CMTI-I analogue 229, phage isolate (designed binder)
chain: B1 chain with T6Y, S7T
notes: as for B1
B8: CMTI-I analogue 101, phage isolate (designed binder)
chain: B1 chain with E9G
notes: as for B1
B9: CMTI-I analogue 233, phage isolate (designed binder)
chain: B1 chain with T6Y, S7T
notes: as for B1
B10: CMTI-I analogue 112, phage isolate (designed binder)
chain: B1 chain with K5T, T6A, S7P
notes: as for B1
B11: CMTI-I analogue 117, phage isolate (designed binder)
chain: B1 chain with E9G
notes: as for B1
B12: CMTI-I analogue 110, phage isolate (designed binder)
chain: B1 chain with T6S, L8M, E9G, M11K
notes: as for B1
B13: CMTI-I analogue 234, phage isolate (designed binder)
chain: B1 chain with K5R, T6S
notes: as for B1
B14: CMTI-I analogue 116, phage isolate (designed binder)
chain: B1 chain with P4I, K5R, S7D, E9G
notes: as for B1
B15: CMTI-I analogue 221, phage isolate (designed binder)
chain: B1 chain with T6S, S7T, E9G
notes: as for B1
B16: CMTI-I analogue 113, phage isolate (designed binder)
chain: B1 chain with W2L, S7D, E9G
notes: as for B1
B17: CMTI-I analogue 114, phage isolate (designed binder)
chain: B1 chain with T6S, S7A, E9D, M11K
notes: as for B1
B18: CMTI-I analogue 119, phage isolate (designed binder)
chain: B1 chain with S7H, L8K
notes: as for B1
B19: CMTI-I analogue 103, phage isolate (designed binder)
chain: B1 chain with P4S, K5T, T6Y, E9G
notes: as for B1
B20: CMTI-I analogue 118, phage isolate (designed binder)
chain: B1 chain with K5R, S7V, L8R, E9R
notes: as for B1
B21: CMTI-I analogue 232, phage isolate (designed binder)
chain: B1 chain with E9G
notes: as for B1
B22: CMTI-I analogue 102, phage isolate (designed binder)
chain: B1 chain with W2L, S7Y, E9G
notes: as for B1
B23: CMTI-I analogue 104, phage isolate (designed binder)
chain: B1 chain with P4S, K5T, T6Y, E9G
notes: as for B1
B24: CMTI-I analogue 222, phage isolate (designed binder)
chain: B1 chain with T6S, S7T, E9G
notes: as for B1
B25: CMTI-I analogue 115, phage isolate (designed binder)
chain: B1 chain with P4T, L8R
notes: as for B1
B26: CMTI-I analogue 111, phage isolate (designed binder)
chain: B1 chain with K5R, S7V, L8Q
notes: as for B1

T1 sequence (P00750 36-562 limits assumed): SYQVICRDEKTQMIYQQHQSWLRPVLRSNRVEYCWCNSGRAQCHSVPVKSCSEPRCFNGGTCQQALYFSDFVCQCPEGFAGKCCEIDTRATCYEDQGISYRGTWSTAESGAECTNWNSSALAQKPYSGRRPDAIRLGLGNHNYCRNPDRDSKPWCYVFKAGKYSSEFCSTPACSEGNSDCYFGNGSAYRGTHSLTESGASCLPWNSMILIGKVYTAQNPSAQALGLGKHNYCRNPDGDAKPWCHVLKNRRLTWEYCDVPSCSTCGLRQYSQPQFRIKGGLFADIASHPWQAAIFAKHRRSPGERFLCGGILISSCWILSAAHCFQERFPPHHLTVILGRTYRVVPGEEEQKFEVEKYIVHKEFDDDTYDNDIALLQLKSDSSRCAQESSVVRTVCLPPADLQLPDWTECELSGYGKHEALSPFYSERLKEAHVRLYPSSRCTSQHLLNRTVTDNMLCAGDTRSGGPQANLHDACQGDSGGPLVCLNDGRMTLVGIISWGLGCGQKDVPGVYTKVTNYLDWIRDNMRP

One assay has as its target T1, recombinant human tissue-type plasminogen activator (tPA) (human, UniProt P00750 36-562).
T1 construct: Immobilized on ReactiGel agarose beads for the phage work; Used in solution for the column tests
The assay is described as follows: phage display selection on tPA agarose beads, binding at pH 7. The protocol: For this work, tPA was purchased from CalBiochem (#612200) and immobilized on ReactiGel™ agarose beads from Pierce Chemical Company by methods described in Markland et al. (1996). Approximately 200 μg of tPA were coupled to 200 μL of ReactiGel™ slurry.
The phage libraries described were screened for binding to tPA through four rounds. In the first round, the phage libraries were mixed in separate reactions with tPA agarose beads at pH 7 in phosphate-buffered saline (PBS). Bovine serum albumin (BSA) was added at 0.1% to reduce non-specific binding. Unbound phage were washed off at pH 7, and the bound phage eluted at pH 2 for the first screen only. […] Pool A consisted of the combined outputs from the CMTI and Lib#1 libraries, and Pool B consisted of the combined outputs of the Lib#3 and Lib#5 libraries. The binding of pooled libraries was performed at pH 7, however, the first elution to remove bound phage was carried out at pH 5 and a subsequent elution at pH 2 to elute phage that are released in the pH 5-pH 2 range. This was repeated twice more for a total of 4 rounds of selection.
For the molecule B1, the binding result is “binds”.
Same read-out and setting: the value for B2 was “binds”; that for B3 was “binds”.
The same measure, in the same setting: the value for B4 was “binds”.
On the same count and under the same terms, next, B5: “binds”.
As for B6, the binding result is “binds”.
For the molecule B7, the binding result is given as “binds”.
Take B8: the binding result is reported as “binds”.
With B9, the binding result is reported as “binds”.
The same measure, in the same setting: next, B10: “binds”; B11: “binds”; B12: “binds”.
Consider B13, for which the binding result is given as “binds”.
Still for that read-out and setting: next, B14: “binds”.
Same read-out and setting: the value for B15 was “binds”.
For B16, the binding result was “binds”.
The same measure, in the same setting: next, B17: “binds”.
On to B18, for which the binding result is listed as “binds”.
Take B19: the binding result is reported as “binds”.
As for B20, the binding result is given as “binds”.
Same read-out and setting: next, B21: “binds”; B22: “binds”; B23: “binds”.
In the case of B24, the binding result is reported as “binds”.
Same read-out and setting: next, B25: “binds”.
As to B26, the binding result was “binds”.

The next assay addresses human serum protease thrombin (human, UniProt P00734 328-622). Briefly: phage binding to protein on beads (data not shown).
For B1, the binding result is listed as “no binding”.
For B2, the binding result is listed as “no binding”.
Consider B3, for which the binding result was “no binding”.
On the same count and under the same terms, next, B4: “no binding”; B5: “no binding”.
For the molecule B6, the binding result was “no binding”.
Still for that read-out and setting: the value for B7 was “no binding”; that for B8 was “no binding”; that for B9 was “no binding”.
For the molecule B10, the binding result is “no binding”.
On the same count and under the same terms, next, B11: “no binding”.
On the same count and under the same terms, next, B12: “no binding”; B13: “no binding”.
Same read-out and setting: the value for B14 was “no binding”; that for B15 was “no binding”; that for B16 was “no binding”.
B17: the binding result is listed as “no binding”.
The same measure, in the same setting: next, B18: “no binding”.
Same read-out and setting: next, B19: “no binding”; B20: “no binding”; B21: “no binding”.
Still for that read-out and setting: the value for B22 was “no binding”.
On to B23, for which the binding result was “no binding”.
On the same count and under the same terms, next, B24: “no binding”; B25: “no binding”; B26: “no binding”.

In the next assay the target is human serum protease plasmin (human, UniProt P00747 97-810, limits assumed). The assay is described as follows: phage binding to protein on beads (data not shown).
Chain of human serum protease plasmin (P00747 97-810 limits assumed): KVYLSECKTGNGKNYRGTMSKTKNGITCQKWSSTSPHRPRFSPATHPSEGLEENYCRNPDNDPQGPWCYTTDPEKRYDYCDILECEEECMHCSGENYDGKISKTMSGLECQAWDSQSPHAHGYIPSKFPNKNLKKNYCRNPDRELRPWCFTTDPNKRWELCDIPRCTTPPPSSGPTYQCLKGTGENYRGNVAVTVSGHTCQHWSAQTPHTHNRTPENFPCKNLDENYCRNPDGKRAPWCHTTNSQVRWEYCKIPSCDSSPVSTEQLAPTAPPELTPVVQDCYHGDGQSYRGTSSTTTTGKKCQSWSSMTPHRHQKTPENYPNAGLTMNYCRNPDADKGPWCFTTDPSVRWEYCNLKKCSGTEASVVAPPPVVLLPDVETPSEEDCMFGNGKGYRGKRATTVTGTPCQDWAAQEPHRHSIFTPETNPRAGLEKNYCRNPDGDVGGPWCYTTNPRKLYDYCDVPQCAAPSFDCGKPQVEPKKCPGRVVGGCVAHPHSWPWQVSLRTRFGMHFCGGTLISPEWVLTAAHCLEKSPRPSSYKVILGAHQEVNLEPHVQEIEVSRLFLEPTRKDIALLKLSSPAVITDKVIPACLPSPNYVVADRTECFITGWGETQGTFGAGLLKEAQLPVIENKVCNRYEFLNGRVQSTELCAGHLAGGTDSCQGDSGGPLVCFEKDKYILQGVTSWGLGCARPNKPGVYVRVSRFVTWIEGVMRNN
Turning to B1, the binding result was “no binding”.
On the same count and under the same terms, the value for B2 was “no binding”; that for B3 was “no binding”; that for B4 was “no binding”.
The same measure, in the same setting: the value for B5 was “no binding”.
On the same count and under the same terms, next, B6: “no binding”.
In the case of B7, the binding result is reported as “no binding”.
In the case of B8, the binding result is reported as “no binding”.
With B9, the binding result is “no binding”.
For B10, the binding result is given as “no binding”.
On the same count and under the same terms, next, B11: “no binding”; B12: “no binding”; B13: “no binding”.
Still for that read-out and setting: the value for B14 was “no binding”; that for B15 was “no binding”.
Same read-out and setting: next, B16: “no binding”; B17: “no binding”; B18: “no binding”.
On to B19, for which the binding result is reported as “no binding”.
On the same count and under the same terms, the value for B20 was “no binding”; that for B21 was “no binding”.
Still for that read-out and setting: next, B22: “no binding”; B23: “no binding”.
The same measure, in the same setting: next, B24: “no binding”; B25: “no binding”; B26: “no binding”.
